Laboratory results published in the Human Domainome abundance scans (Beltran et al. 2025).
± gives the uncertainty stated by the source.

B1: Tyrosine-protein kinase BTK, residues 215 to 273; numbered along this chain, Q06187 (parent)
chain: ELKKVVALYDYMPMNANDLQLRKGDEYFILEESNLPWWRARDKNGQEGYIPSNYVTEAE
B2: Zinc finger homeobox protein 4, residues 2183 to 2238; numbered along this chain, Q86UP3 (parent)
chain: SSRTRFTDYQLRVLQDFFDTNAYPKDDEIEQLSTVLNLPTRVIVVWFQNARQKARK

Variants of: B1
Test: abundance fitness (aPCA) (normalised: wild type 0, dead -1); higher = more abundant; growth selection in yeast, the domain comes from the species named
Conditions: Homo sapiens

Abundance fitness: each site, then its substitutions
P51: Y -0.04 ± 0.14 | W -0.164 ± 0.045 | N -0.102 ± 0.084 | Q -0.128 ± 0.055 | V -0.379 ± 0.038 | T -0.528 ± 0.067 | R -0.069 ± 0.033 | M -0.123 ± 0.055 | S -0.186 ± 0.043
E59: M -0.138 ± 0.083 | W -0.081 ± 0.064 | D -0.128 ± 0.086 | Y -0.116 ± 0.097 | K -0.008 ± 0.08 | S 0.067 ± 0.053 | C -0.061 ± 0.073 | H -0.054 ± 0.13 | F -0.072 ± 0.1 | T -0.012 ± 0.083 | V 0.023 ± 0.075 | I -0.014 ± 0.088 | P -0.025 ± 0.1 | Q -0.015 ± 0.1 | G 0.042 ± 0.056 | L -0.097 ± 0.06
V55: F -0.318 ± 0.061 | G -0.827 ± 0.056 | N -0.808 ± 0.21 | K -0.833 ± 0.12 | Y -0.836 ± 0.15 | C -0.083 ± 0.048 | T -0.12 ± 0.06 | Q -0.945 ± 0.16 | W -0.784 ± 0.069 | L -0.292 ± 0.042 | A -0.32 ± 0.05 | M -0.284 ± 0.079 | H -0.852 ± 0.11 | R -0.905 ± 0.063 | S -0.695 ± 0.05 | D -0.891 ± 0.11 | E -0.617 ± 0.07
E57: H 0.023 ± 0.071 | T -0.006 ± 0.051 | L -0.057 ± 0.037 | G 0.01 ± 0.048 | S -0.009 ± 0.035 | V 0.03 ± 0.044 | D -0.072 ± 0.074 | Q -0.024 ± 0.043 | W -0.051 ± 0.042 | R -0.065 ± 0.033 | A -0.025 ± 0.042 | N 0.088 ± 0.069 | I -0.133 ± 0.13 | Y -0.018 ± 0.083 | M -0.022 ± 0.056 | F -0.026 ± 0.063 | K -0.047 ± 0.053
A58: K -0.005 ± 0.086 | R -0.03 ± 0.041 | L -0.113 ± 0.039 | E 0.08 ± 0.057 | W -0.11 ± 0.083 | Q -0.072 ± 0.077 | C -0.058 ± 0.06 | N -0.012 ± 0.073 | D -0.092 ± 0.06 | F -0.016 ± 0.073 | P -0.001 ± 0.064 | T -0.051 ± 0.053 | V 0.001 ± 0.037 | I -0.223 ± 0.071 | G -0.01 ± 0.036 | Y -0.016 ± 0.075
T56: L -0.086 ± 0.031 | F -0.169 ± 0.068 | H 0.014 ± 0.087 | A 0.033 ± 0.038 | P -0.733 ± 0.07 | R 0.012 ± 0.037 | Y -0.191 ± 0.064 | C -0.032 ± 0.092 | G 0.08 ± 0.055 | V 0.014 ± 0.038 | W -0.044 ± 0.055 | S -0.03 ± 0.04 | Q 0.043 ± 0.067 | I -0.184 ± 0.071 | M 0.025 ± 0.058 | D 0.021 ± 0.062 | N -0.094 ± 0.087
S52: N -0.026 ± 0.072 | M 0.019 ± 0.07 | V -0.023 ± 0.044 | T -0.058 ± 0.051 | K 0.088 ± 0.071 | Q -0.032 ± 0.06 | R -0.008 ± 0.038 | E -0.065 ± 0.066 | F -0.108 ± 0.049 | G -0.028 ± 0.036 | D -0.232 ± 0.063 | W -0.03 ± 0.049 | I -0.053 ± 0.066 | A -0.009 ± 0.047 | Y -0.226 ± 0.067 | P -0.005 ± 0.055
N53: A -0.005 ± 0.044 | C -0.164 ± 0.077 | W -0.137 ± 0.054 | F -0.137 ± 0.066 | E -0.016 ± 0.041 | H -0.123 ± 0.11 | D -0.043 ± 0.065 | T -0.054 ± 0.052 | Y -0.202 ± 0.071 | R -0.03 ± 0.04 | I -0.238 ± 0.091 | S -0.006 ± 0.04 | K -0.025 ± 0.052 | M -0.079 ± 0.048 | V -0.004 ± 0.038 | Q -0.041 ± 0.067 | L -0.099 ± 0.037
Y54: P -0.93 ± 0.099 | W -0.074 ± 0.06 | L -0.109 ± 0.034 | S 0.022 ± 0.037 | A 0.02 ± 0.05 | T -0.235 ± 0.059 | M 0.035 ± 0.066 | R -0.078 ± 0.033 | Q -0.153 ± 0.066 | V -0.203 ± 0.048 | K -0.159 ± 0.07 | H -0.009 ± 0.066 | N -0.266 ± 0.065 | C -0.037 ± 0.05 | F 0.101 ± 0.066 | G 0.037 ± 0.042 | D -0.562 ± 0.094 | I -0.228 ± 0.075

Variants of: B2
Test: as above
Conditions: Homo sapiens

Abundance fitness, by site and new letter:
Q10: M -0.14 ± 0.11 | L -0.736 ± 0.075 | V -0.547 ± 0.076 | T -0.176 ± 0.076 | R -0.657 ± 0.079 | S -0.335 ± 0.067 | G -0.69 ± 0.084 | I -0.391 ± 0.091 | Y -0.787 ± 0.09 | H -0.118 ± 0.076 | F -0.928 ± 0.12 | D -0.454 ± 0.087 | C -0.395 ± 0.082 | A -0.459 ± 0.073 | E -0.297 ± 0.11 | K -0.512 ± 0.13 | W -0.826 ± 0.13
R3: Q 0.053 ± 0.11 | E 0.201 ± 0.11 | T 0.368 ± 0.13 | P 0.09 ± 0.12 | K 0.31 ± 0.12 | D 0.343 ± 0.14 | M 0.344 ± 0.12
